Measurements as given in patent publication US20240166755A1, “CHIMERIC ANTIGEN RECEPTORS TARGETING CANCER” (University of Southern California, priority 2016, published 2024).

Assays:
[1] = tested on: Jurkat cells stably expressing MPL and GLuc; test: GLuc cell death assay, Jurkat-MPL-GLuc target cells; conditions: T cells, puromycin selected, E:T 10:1, 4 hours
[2] = tested on: RAJI-MPL cells; test: Jurkat-NFAT-EGFP reporter assay, co-culture with RAJI-MPL or RAJI-vector cells (Table 25); assay type: cell-based, human; conditions: RAJI-MPL cells compared with RAJI-vector cells
From the text: (§1) Cells were subsequently co-cultured with MPL-expressing HEL.92.1.7 (HEL) cells. […] CAR construct with HEL cells. The experiment was repeated by co-culturing the Jurkat-NFAT-EGFP cells with either RAJI cells, which have weak MPL expression, or with RAJI-MPL cells that were engineered to ectopically express human MPL receptor.

[3] = tested on: HEL cells stably expressing GLuc; test: GLuc cell death assay, HEL-GLuc target cells; conditions: for GLuc activity (lysis of target cells): T cells, puromycin selected, E:T 10:1, 4 hours
Method: The blood samples to isolate Peripheral blood mononuclear cells (PBMCs) were obtained from healthy de-identified adult donors. PBMC were isolated from buffy coats by Ficoll-Hypaque gradient centrifugation and re-suspended in XVIVO medium (Lonza) supplanted with 10 ng/ml soluble anti-CD3, 10 ng/ml soluble anti-CD28 and 100 IU recombinant human-IL2. […] The PBMC expressing the indicated CARs and uninfected PBMC were co-cultured with HEL-GLuc target cells for 4 h and lysis of target cells measured by the single-step homogenous GLuc assay by injecting 0.5× CTZ assay buffer as described above.
Cells were selected with puromycin and expanded.
Cells were subsequently co-cultured overnight with HEL.92.1.7 cells that had been engineered to express GLuc.

[4] = tested on: MPL-expressing HEL.92.1.7 (HEL) cells; test: Jurkat-NFAT-EGFP reporter assay, co-culture with HEL cells (Table 25); assay type: cell-based, human; conditions: FACS
From the text: as §1

| Molecule | GLuc activity (lysis of target cells) [1] | EGFP expression (NFAT-EGFP reporter) [2] | GLuc activity (lysis of target cells) [3] | EGFP expression (NFAT-EGFP reporter) [4] | killing of HEL-GLuc cells ([3]; CAR-expressing PBMC, 4 h, versus uninfected PBMC) |
| --- | --- | --- | --- | --- | --- |
| CD8SP-12E10-(vL-vH)-Myc-CD28z-T2A-PAC(031615-S03): CAR construct targeting MPL, 12E10 scFv, CD28 costimulatory domain (protein, listed as DNA) MALPVTALLLPLALLLHAARPDQVQLQQSGPGLVKPSETLSLTCTVSGDSISSYYWSWIRQPPGKGLEWIGYIYYSGSTNYNPSLKSRVTISVDTSKSQFSLKLSSVTAADTAVYYCARGRYFDVWGRGTMVTSSGGGGSGGGGSGGGGSSSYVLTQPPSVSGSPGQSITISCTGTSSDVGGYNYVSWYQQHPGKAPKLMIYEGSKRPSGVSNRFSGSKSGNTASLTISGLQAEDEADYYCSSYTTRSTRVFGGGTKLTVLGAAATREQKLISEEDLKIEVMYPPPYLDNEKSNGTIIHVKGKHLCPSPLFPGPSKPFWVLVVVGGVLACYSLLVTVAFIIFWVRSKRSRLLHSDYMNMTPRRPGPTRKHYQPYAPPRDFAAYRSRVKFSRSADAPAYQQGQNQLYNELNLGRREEYDVLDKRRGRDPEMGGKPRRKNPQEGLYNELQKDKMAEAYSEIGMKGERRRGKGHDGLYQGLSTATKDTYDALHMQALPPRSSGSGEGRGSLLTCGDVEENPGPHMTEYKPTVRLATRDDVPRAVRTLAAAFADYPATRHTVDPDRHIERVTELQELFLTRVGLDIGKVWVADDGAAVAVWTTPESVEAGAVFAEIGPRMAELSGSRLAAQQQMEGLLAPHRPKEPAWFLATVGVSPDHQGKGLGSAVVLPGVEAAERAGVPAFLETSAPRNLPFYERLGFTVTADVEVPEGPRTWCMTRKPGA | stronger |  |  |  |  |
| CD8SP-161-(vL-vH)-Myc-CD28z-T2A-PAC(021715-Z07): CAR targeting MPL: 161 scFv with CD28 hinge, transmembrane and cytosolic domains and CD3z (protein, listed as DNA, CAR targeting MPL: 161 scFv with CD28 hinge, transmembrane and cytosolic domains and CD3z) MALPVTALLLPLALLLHAARPDDIQMTQSSSSFSVSLGDRVTITCMASEDIYIRLAWYQQKPGNAPRLLISAATSLETGVPSRFSGSGSGKDYTLSITSLQTEDVGTYYCQQYWSSPWTFGGGTKLEINGGGGSGGGGSGGGGSDVQLQESGPGLVKPSQSLSLTCTVTGYSITSDYTWNWIRQFPGNKLEWMGYITYSGSTSYNPSLKSRNSITRDTSKNQFFLQLNSVTTEDTATYYCARLGRRYTMDYWGQGTSVTVSSTREQKLISEEDLKIEVMYPPPYLDNEKSNGTIIHVKGKHLCPSPLFPGPSKPFWVLVVVGGVLACYSLLVTVAFIIFWVRSKRSRLLHSDYMNMTPRRPGPTRKHYQPYAPPRDFAAYRSRVKFSRSADAPAYQQGQNQLYNELNLGRREEYDVLDKRRGRDPEMGGKPRRKNPQEGLYNELQKDKMAEAYSEIGMKGERRRGKGHDGLYQGLSTATKDTYDALHMQALPPRSSGSGEGRGSLLTCGDVEENPGPHMTEYKPTVRLATRDDVPRAVRTLAAAFADYPATRHTVDPDRHIERVTELQELFLTRVGLDIGKVWVADDGAAVAVWTTPESVEAGAVFAEIGPRMAELSGSRLAAQQQMEGLLAPHRPKEPAWFLATVGVSPDHQGKGLGSAVVLPGVEAAERAGVPAFLETSAPRNLPFYERLGFTVTADVEVPEGPRTWCMTRKPGA | stronger | strongest | stronger | strongest |  |
| CD8SP-178-(vL-vH)-Myc-CD28z-T2A-PAC(031615-R04): CAR construct targeting MPL, 178 scFv, CD28 costimulatory domain (protein, listed as DNA) MALPVTALLLPLALLLHAARPDIVMTQAAPSIPVTPGESVSISCRSDKSLLHSNGNTYLFWFLQRPGQSPQLLIYRMSNLASGVPDRFSGSGSGTAFTLRISGVEAEDVGVYYCMQHLEYPYTFGGGTKLEIKGGGGSGGGGSGGGGSQVQLQQSGPELVKPGASVKMSCKASGYAFSSSWLNWVRQRPGKGLEWIGRIYPGDGENHYNGKFKGKATLTADKSSSTGYMQLSSLTSEDSAVYFCASYYEGGYWGQGTLITVSATREQKLISEEDLKIEVMYPPPYLDNEKSNGTIIHVKGKHLCPSPLFPGPSKPFWVLVVVGGVLACYSLLVTVAFIIFWVRSKRSRLLHSDYMNMTPRRPGPTRKHYQPYAPPRDFAAYRSRVKFSRSADAPAYQQGQNQLYNELNLGRREEYDVLDKRRGRDPEMGGKPRRKNPQEGLYNELQKDKMAEAYSEIGMKGERRRGKGHDGLYQGLSTATKDTYDALHMQALPPRSSGSGEGRGSLLTCGDVEENPGPHMTEYKPTVRLATRDDVPRAVRTLAAAFADYPATRHTVDPDRHIERVTELQELFLTRVGLDIGKVWVADDGAAVAVWTTPESVEAGAVFAEIGPRMAELSGSRLAAQQQMEGLLAPHRPKEPAWFLATVGVSPDHQGKGLGSAVVLPGVEAAERAGVPAFLETSAPRNLPFYERLGFTVTADVEVPEGPRTWCMTRKPGA | modest |  | modest |  |  |
| CD8SP-MPL-VB22Bw4-(vL-vH)-Myc-CD28z-T2A-PAC(031615-B06): CAR construct targeting MPL, VB22Bw4 scFv, CD28 costimulatory domain (protein, listed as DNA) MALPVTALLLPLALLLHAARPDDIVMTQSPLSLPVTPGEPASISCRSSKSLLHSNGNTYLYWFLQKPGQSPQLLIYRMSNLASGVPDRFSGSGSGTDFTLKISRVEAEDVGVYYFMQHIEYPFTFGQGTKLEIKGGGGSGGGGSGGGGSQVQLVQSGPEVKKPGASVKVSCKASGYTFTNSWMNWVRQRPGKGLEWIGRIYPGDGETIYNGKFRVRVTITADESTSTAYMQLSSLRSEDTAVYYCARGYDDYSFAYWGQGTTVTVSSTREQKLISEEDLKIEVMYPPPYLDNEKSNGTIIHVKGKHLCPSPLFPGPSKPFWVLVVVGGVLACYSLLVTVAFIIFWVRSKRSRLLHSDYMNMTPRRPGPTRKHYQPYAPPRDFAAYRSRVKFSRSADAPAYQQGQNQLYNELNLGRREEYDVLDKRRGRDPEMGGKPRRKNPQEGLYNELQKDKMAEAYSEIGMKGERRRGKGHDGLYQGLSTATKDTYDALHMQALPPRSSGSGEGRGSLLTCGDVEENPGPHMTEYKPTVRLATRDDVPRAVRTLAAAFADYPATRHTVDPDRHIERVTELQELFLTRVGLDIGKVWVADDGAAVAVWTTPESVEAGAVFAEIGPRMAELSGSRLAAQQQMEGLLAPHRPKEPAWFLATVGVSPDHQGKGLGSAVVLPGVEAAERAGVPAFLETSAPRNLPFYERLGFTVTADVEVPEGPRTWCMTRKPGA | modest |  |  |  |  |
| CD8SP-MPL-161-(vL-vH)-Myc-BBz-T2A-PAC(021015-R07): CAR targeting MPL: 161 scFv, Myc tag, CD8 hinge/TM, 41BB, CD3z, T2A, puromycin resistance (protein, listed as DNA, CAR targeting MPL: 161 scFv, Myc tag, CD8 hinge/TM, 41BB, CD3z, T2A, puromycin resistance) MALPVTALLLPLALLLHAARPDDIQMTQSSSSFSVSLGDRVTITCMASEDIYIRLAWYQQKPGNAPRLLISAATSLETGVPSRFSGSGSGKDYTLSITSLQTEDVGTYYCQQYWSSPWTFGGGTKLEINGGGGSGGGGSGGGGSDVQLQESGPGLVKPSQSLSLTCTVTGYSITSDYTWNWIRQFPGNKLEWMGYITYSGSTSYNPSLKSRNSITRDTSKNQFFLQLNSVTTEDTATYYCARLGRRYTMDYWGQGTSVTVSSTREQKLISEEDLAKPTTTPAPRPPTPAPTIASQPLSLRPEACRPAAGGAVHTRGLDFACDIYIWAPLAGTCGVLLLSLVITLYCKRGRKKLLYIFKQPFMRPVQTTQEEDGCSCRFPEEEEGGCELRVKFSRSADAPAYQQGQNQLYNELNLGRREEYDVLDKRRGRDPEMGGKPRRKNPQEGLYNELQKDKMAEAYSEIGMKGERRRGKGHDGLYQGLSTATKDTYDALHMQALPPRSSGSGEGRGSLLTCGDVEENPGPHMTEYKPTVRLATRDDVPRAVRTLAAAFADYPATRHTVDPDRHIERVTELQELFLTRVGLDIGKVWVADDGAAVAVWTTPESVEAGAVFAEIGPRMAELSGSRLAAQQQMEGLLAPHRPKEPAWFLATVGVSPDHQGKGLGSAVVLPGVEAAERAGVPAFLETSAPRNLPFYERLGFTVTADVEVPEGPRTWCMTRKPGA |  | strongest |  | strongest | increased killing |
| CD8SP-AB317-(vL-vH)-Myc-CD28z-T2A-PAC(031615-T04): CAR construct targeting MPL, AB317 scFv, CD28 costimulatory domain (protein, listed as DNA) MALPVTALLLPLALLLHAARPDIVLTQSPASLAVSLGQSVTISCRASESVEYYGTSLMQWYQQKPGQPPKLLIYGASNVESGVPARFSGSGSGTDFSLNIHPVEEDDIAMYFCQQSRKVPWTFGGGTKLEIKGGGGSGGGGSGGGGSEVKLVESGGGLVKPGGSRKLSCAASGFTFSSYTMSWVRQTPAKRLEWVATISSGSSTIYYADTVKGRFTISRDNAKNTLFLQMTSLRSEDTAMYYCARRWFLDCWGQGTTLTVSSTREQKLISEEDLKIEVMYPPPYLDNEKSNGTIIHVKGKHLCPSPLFPGPSKPFWVLVVVGGVLACYSLLVTVAFIIFWVRSKRSRLLHSDYMNMTPRRPGPTRKHYQPYAPPRDFAAYRSRVKFSRSADAPAYQQGQNQLYNELNLGRREEYDVLDKRRGRDPEMGGKPRRKNPQEGLYNELQKDKMAEAYSEIGMKGERRRGKGHDGLYQGLSTATKDTYDALHMQALPPRSSGSGEGRGSLLTCGDVEENPGPHMTEYKPTVRLATRDDVPRAVRTLAAAFADYPATRHTVDPDRHIERVTELQELFLTRVGLDIGKVWVADDGAAVAVWTTPESVEAGAVFAEIGPRMAELSGSRLAAQQQMEGLLAPHRPKEPAWFLATVGVSPDHQGKGLGSAVVLPGVEAAERAGVPAFLETSAPRNLPFYERLGFTVTADVEVPEGPRTWCMTRKPGA | stronger |  | stronger |  |  |
